US20260265373A1

Key:
[1] = target: full-length human ILT7 on cells (human) (UniProt P59901); experiment: flow cytometry of human PBMCs, gate on pDCs (CD11c low, HLA-DR+, CD123+)
[2] = target: full-length human ILT7 on cells (human) (UniProt P59901); experiment: competitive FACS on CHOK1 cells expressing human ILT7; competitor Tab1-Alexa488; negative control, reference of the calculation
[3] = target: full-length human ILT7 on cells (human) (UniProt P59901); experiment: competitive FACS on CHOK1 cells expressing human ILT7; competitor Tab1-Alexa488; negative control that sets the reference signal

Sequence of full-length human ILT7 on cells (human) (P59901 other isoform, or with tags, fused parts or gaps): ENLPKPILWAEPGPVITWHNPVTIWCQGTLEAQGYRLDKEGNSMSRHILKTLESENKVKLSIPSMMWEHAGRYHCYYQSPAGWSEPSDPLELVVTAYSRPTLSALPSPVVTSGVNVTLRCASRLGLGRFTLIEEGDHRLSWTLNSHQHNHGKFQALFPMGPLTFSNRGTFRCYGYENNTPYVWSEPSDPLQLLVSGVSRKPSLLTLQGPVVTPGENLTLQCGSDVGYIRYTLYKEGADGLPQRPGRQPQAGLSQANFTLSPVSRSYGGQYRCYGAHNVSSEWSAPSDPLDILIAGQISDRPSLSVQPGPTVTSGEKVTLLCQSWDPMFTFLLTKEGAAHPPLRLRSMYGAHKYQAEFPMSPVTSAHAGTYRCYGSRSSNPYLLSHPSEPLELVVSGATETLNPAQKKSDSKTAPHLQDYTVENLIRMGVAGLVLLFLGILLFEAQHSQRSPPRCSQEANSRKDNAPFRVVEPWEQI

**Q.** With “isotype antibody hIgG1 (negative control)” as the substance, how does the % targeted cells in subpopulation (pDC) [1] read?
**A.** Its % targeted cells in subpopulation (pDC) is 2.2%.

**Q.** And the Inhibition (%) [2]?
**A.** Its Inhibition (%) is 0%.

**Q.** What about the MFI of Tab1-Alexa488 [3] of the same substance?
**A.** The MFI of Tab1-Alexa488 was 9670.
